According to PMC3205929 (The Journal of neuroscience : the official journal of the …, 2011):

Molecular target: DAT 587–590(4A) mutant expressed in PC12 cells (human, UniProt Q01959 1-620, 587–590(4A))
Experiment: co-IP

B1: Rin, endogenous in PC12 cells (natural protein, rat (endogenous in PC12), UniProt Q5BJQ5 1-217, looked up)
chain: MEAENEAHCCPGSSSGGSREYKVVMLGAGGVGKSAVTMQFISHQFPDYHDPTIEDAYKTQVRIDNEPAYLDILDTAGQAEFTAMREQYMRGGEGFIICYSVTDRQSFQEAAKFKELIFQVRHTYEIPLVLVGNKIDLEQFRQVSTEEGMTLARDYNCAFFETSAALRFGIDDAFQGLVREIRRKESMLSLVERKLKRKDSLWKKIKASLKKKRENMI
With B1 the “basal interaction with Rin, % of wild type DAT” value was 300 % of wild type DAT/Rin interactions.
